Here are results for one molecule from patent US20230131598A1 (GlaxoSmithKline, published 2023).

The assay addresses T1, human TIM-3 (T Cell Immunoglobulin and Mucin Domain-3) (human, UniProt Q8TDQ0 22-301).
T1 construct: The occupancy sentence names neither the receptor nor its form; also called HAVCR2
T1 sequence: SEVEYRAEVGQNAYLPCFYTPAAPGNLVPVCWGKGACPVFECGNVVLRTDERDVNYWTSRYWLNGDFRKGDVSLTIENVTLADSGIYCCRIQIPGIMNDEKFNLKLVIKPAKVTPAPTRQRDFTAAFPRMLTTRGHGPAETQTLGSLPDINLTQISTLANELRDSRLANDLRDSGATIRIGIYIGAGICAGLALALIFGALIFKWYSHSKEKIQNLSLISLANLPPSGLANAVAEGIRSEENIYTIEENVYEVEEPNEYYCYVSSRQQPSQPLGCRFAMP
Nature of the assay: receptor occupancy in subjects of a corresponding Phase 1 study (method not described).

B1: cobolimab (antibody, human IgG4 S228P, kappa, V domains shown)
VH: EVQLLESGGGLVQPGGSLRLSCAAASGFTFSSYDMSWVRQAPGKGLDWVSTISGGGTYTYYQDSVKGRFTISRDNSKNTLYLQMNSLRAEDTAVYYCASMDYWGQGTTVTVSS
VL: DIQMTQSPSSLSASVGDRVTITCRASQSIRRYLNWYHQKPGKAPKLLIYGASTLQSGVPSRFSGSGSGTDFTLTISSLQPEDFAVYYCQQSHSAPLTFGGGTKVEIKR
notes: also called Anti-TIM3
For the molecule B1, the binding result is “binds”.
